# Reference: US20120316071A1 (published 2012)
# T1: rHuman Erythropoietin R/Fc Chimera, CF (R&D Systems Cat#963-ER) (human, UniProt P19235 25-250)
# T1 construct: Bought recombinant protein; also called EPO R; EPO R/Fc; Fc part of the bought chimera not given
# T1 sequence (looked up): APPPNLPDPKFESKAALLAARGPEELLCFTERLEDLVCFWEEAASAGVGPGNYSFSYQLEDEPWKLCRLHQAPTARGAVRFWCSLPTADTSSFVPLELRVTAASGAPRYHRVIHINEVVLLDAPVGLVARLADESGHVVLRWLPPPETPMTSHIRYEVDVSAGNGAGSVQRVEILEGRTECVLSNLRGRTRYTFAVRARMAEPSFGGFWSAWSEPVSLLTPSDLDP
# Assays:
# [1] = target: T2, rHuman IGF-1 sR (insulin-like growth factor-1 soluble receptor), CF (R&D Systems Cat#391-GR) (human, UniProt P08069 31-932); test: ECL multispot (MSD), antigen spotted on plate, Fab at 5.00 (column head: Fab [µM])
# T2 construct: Bought recombinant soluble receptor
# [2] = target: T1, rHuman Erythropoietin R/Fc Chimera, CF …; test: as above
# [3] = target: T3, rHuman CD44/Fc Chimera, CF (R&D Systems Cat#3660-CD) (human, UniProt P16070 21-220); test: as above
# T3 construct: Bought recombinant protein; Fc part of the bought chimera not given
# [4] = target: T4, rHuman EGF R/Fc Chimera, CF (R&D Systems Cat#344-ER) (human, UniProt P00533 25-645); test: as above
# T4 construct: Bought recombinant protein; Fc part of the bought chimera not given
# [5] = target: T5, rHuman P-Cadherin/Fc Chimera, CF (R&D Systems Cat#861-PC) (human, UniProt P22223 108-654); test: as above
# T5 construct: Bought recombinant protein; Fc part of the bought chimera not given
# [6] = target: T6, Recombinant Human DLL4 (R&D Systems Cat#1506-D4/CF) (human, UniProt Q9NR61 27-524); test: as above
# T6 construct: Bought recombinant protein; also called delta-like protein 4; rHuman DLL4
# [7] = target: T7, rHuman Notch-1/Fc Chimera, CF (R&D Systems Cat#3647-TK) (human, UniProt P46531 19-526); test: as above
# T7 construct: Bought recombinant chimera; Fc part of the bought chimera not given
# [8] = target: T8, rHuman ErbB2/Fc Chimera, CF (R&D Systems Cat#1129-ER) (human, UniProt P04626 23-652); test: as above
# T8 construct: Bought recombinant protein; Fc part of the bought chimera not given
# [9] = target: T9, rHuman HGF R/c-MET/Fc Chimera, CF (R&D Systems Cat#358-MT/CF) (human, UniProt P08581 25-932); test: as above
# T9 construct: Bought recombinant protein; also called HGF R/Fc; Fc part of the bought chimera not given
# [10] = target: T2, rHuman IGF-1 sR (insulin-like growth …); test: ECL multispot (MSD), antigen spotted on plate, Fab at 0.50 (column head: Fab [µM])
# [11] = target: T1, rHuman Erythropoietin R/Fc Chimera, CF …; test: as above
# [12] = target: T3, rHuman CD44/Fc Chimera, CF (R&D Systems …); test: as above
# [13] = target: T4, rHuman EGF R/Fc Chimera, CF (R&D …); test: as above
# [14] = target: T5, rHuman P-Cadherin/Fc Chimera, CF (R&D …); test: as above
# [15] = target: T6, Recombinant Human DLL4 (R&D Systems …); test: as above
# [16] = target: T7, rHuman Notch-1/Fc Chimera, CF (R&D …); test: as above
# [17] = target: T8, rHuman ErbB2/Fc Chimera, CF (R&D …); test: as above
# [18] = target: T9, rHuman HGF R/c-MET/Fc Chimera, CF (R&D …); test: as above
# [19] = target: T6, Recombinant Human DLL4 (R&D Systems …); test: ECL multispot (MSD), antigen spotted on plate, Fab at 500.00 (column head: Fab [µM])
# T9 sequence (P08581 25-932, change not shown): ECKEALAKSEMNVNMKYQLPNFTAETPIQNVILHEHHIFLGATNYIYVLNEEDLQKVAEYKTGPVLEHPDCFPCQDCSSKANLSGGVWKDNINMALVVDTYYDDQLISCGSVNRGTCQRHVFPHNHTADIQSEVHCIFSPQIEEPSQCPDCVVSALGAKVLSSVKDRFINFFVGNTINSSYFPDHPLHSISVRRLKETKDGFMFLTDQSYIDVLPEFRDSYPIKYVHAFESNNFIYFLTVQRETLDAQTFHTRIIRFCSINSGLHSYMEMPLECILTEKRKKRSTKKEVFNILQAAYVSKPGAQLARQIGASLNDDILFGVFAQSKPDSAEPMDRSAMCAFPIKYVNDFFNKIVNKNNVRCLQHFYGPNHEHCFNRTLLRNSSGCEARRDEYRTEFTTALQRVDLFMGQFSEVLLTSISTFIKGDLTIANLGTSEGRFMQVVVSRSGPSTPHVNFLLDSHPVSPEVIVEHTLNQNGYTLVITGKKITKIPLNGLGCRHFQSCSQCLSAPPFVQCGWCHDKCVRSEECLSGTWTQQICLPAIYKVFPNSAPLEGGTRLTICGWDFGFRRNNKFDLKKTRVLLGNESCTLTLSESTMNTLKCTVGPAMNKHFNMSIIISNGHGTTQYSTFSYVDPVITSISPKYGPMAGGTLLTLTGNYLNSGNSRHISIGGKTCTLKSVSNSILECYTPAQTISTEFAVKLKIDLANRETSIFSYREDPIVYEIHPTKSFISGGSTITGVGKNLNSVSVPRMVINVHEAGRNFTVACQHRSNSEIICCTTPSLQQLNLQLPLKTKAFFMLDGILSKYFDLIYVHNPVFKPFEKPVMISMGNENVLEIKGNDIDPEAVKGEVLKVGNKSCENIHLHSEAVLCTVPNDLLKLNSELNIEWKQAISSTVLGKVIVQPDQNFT
signal/noise ratio (ECL) [1],signal/noise ratio (ECL) [2],signal/noise ratio (ECL) [3],signal/noise ratio (ECL) [4],signal/noise ratio (ECL) [5],signal/noise ratio (ECL) [6],signal/noise ratio (ECL) [7],signal/noise ratio (ECL) [8],signal/noise ratio (ECL) [9],signal/noise ratio (ECL) [10],signal/noise ratio (ECL) [11],signal/noise ratio (ECL) [12],signal/noise ratio (ECL) [13],signal/noise ratio (ECL) [14],signal/noise ratio (ECL) [15],signal/noise ratio (ECL) [16],signal/noise ratio (ECL) [17],signal/noise ratio (ECL) [18],signal/noise ratio (ECL) [19],Binder
1.1,1.1,1.3,1,0.9,32.5,0.8,1,0.9,1.2,0.9,1,1.4,1.3,2.9,2,1,0.6,16.2,"Fab VH1-46_IGHD6-6*01_IGHJ1*01 & L6_IGKJ1*01 (Fab, V domains shown, Tested as a Fab expressed in E. coli; The heavy chain came from Plasmid A (CH1 with His6 and Flag tags) and the kappa light chain from Plasmid C (kappa CL); also called Wt; wildtype) VH: QVQLVQSGAEVKKPGASVKVSCKASGYTFTSYYMHWVRQAPGQGLEWMGIINPSGGSTSYAQKFQGRVTMTRDTSTSTVYMELSSLRSEDTAVYYCAREEYSSSSAEYFQHWGQGTLVTVSS VL: not shown"
1.1,1.8,1.3,1.1,1,482,0.9,1.1,0.8,1.3,0.9,1,1.1,0.8,34.5,1.4,1,0.8,181,"Fab VH1-46_IGHD6-6*01_IGHJ1*01 S102A/S103P/S104F (APF) & L6_IGKJ1*01 (Fab, V domains shown, Tested as a Fab expressed in E. coli; the constant parts (CH1 with His6/Flag tags, kappa CL) come from Plasmids A and C; also called APF triple mutant; H:APF & L:wt) VH: QVQLVQSGAEVKKPGASVKVSCKASGYTFTSYYMHWVRQAPGQGLEWMGIINPSGGSTSYAQKFQGRVTMTRDTSTSTVYMELSSLRSEDTAVYYCAREEYAPFSAEYFQHWGQGTLVTVSS VL: not shown"
